Source: patent US20090232794A1 (published 2009)

What was measured:
[1] = molecular target: T1, purified human C1q protein (human, UniProt P02745 23-245; P02746 28-253; P02747 29-245); test: purified human C1q on transfected cells, anti-C1q-FITC immunofluorescence
[2] = molecular target: T1, purified human C1q protein; test: purified human C1q on transfected COS7 cells, anti-C1q-FITC immunofluorescence
Method: COS7 cells were transfected with cDNA's encoding full-length NgR or PirB. […] Cells were washed four times with Hank's Buffered Saline Solution (HBSS), fixed for five minutes with 2% paraformaldehyde, washed four times with HBSS, and blocked for 15 minutes with 10% heat-inactivated goat serum (RIGS) in HBSS. […] Immunofluorescence was detected using a Zeiss Axioskop fluorescence microscope.

T1 sequence (P02745 23-245, chain 1 of 3): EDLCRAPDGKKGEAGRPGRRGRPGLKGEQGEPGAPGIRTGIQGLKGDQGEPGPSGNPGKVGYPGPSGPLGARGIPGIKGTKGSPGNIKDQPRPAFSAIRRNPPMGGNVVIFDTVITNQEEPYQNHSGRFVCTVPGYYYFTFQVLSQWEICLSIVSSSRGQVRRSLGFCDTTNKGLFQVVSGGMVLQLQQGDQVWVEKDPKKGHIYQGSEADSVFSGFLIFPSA
T1 sequence (P02746 28-253, chain 2 of 3): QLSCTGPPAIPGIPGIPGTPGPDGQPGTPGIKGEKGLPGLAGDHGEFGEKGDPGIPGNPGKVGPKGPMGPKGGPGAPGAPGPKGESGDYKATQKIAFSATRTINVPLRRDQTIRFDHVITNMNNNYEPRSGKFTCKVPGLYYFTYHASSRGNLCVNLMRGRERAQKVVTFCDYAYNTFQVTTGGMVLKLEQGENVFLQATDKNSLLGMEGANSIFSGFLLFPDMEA
T1 sequence (P02747 29-245, chain 3 of 3): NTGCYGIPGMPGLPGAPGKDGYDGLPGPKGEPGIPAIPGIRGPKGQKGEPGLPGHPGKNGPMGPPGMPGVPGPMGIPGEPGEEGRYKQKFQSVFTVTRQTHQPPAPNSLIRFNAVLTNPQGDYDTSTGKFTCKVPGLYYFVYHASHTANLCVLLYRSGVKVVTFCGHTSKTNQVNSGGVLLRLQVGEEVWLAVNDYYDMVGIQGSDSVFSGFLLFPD

B1: LILRB2, expressed on transfected COS7 cells (receptor)
chain: QTGTIPKPTLWAEPDSVITQGSPVTLSCQGSLEAQEYRLYREKKSASWITRIRPELVKNGQFHIPSITWEHTGRYGCQYYSRARWSELSDPLVLVMTGAYPKPTLSAQPSPVVTSGGRVTLQCESQVAFGGFILCKEGEDEHPQCLNSQPHARGSSRAIFSVGPVSPNRRWSHRCYGYDLNSPYVWSSPSDLLELLVPGVSKKPSLSVQPGPVVAPGESLTLQCVSDVGYDRFVLYKEGERDLRQLPGRQPQAGLSQANFTLGPVSRSYGGQYRCYGAYNLSSEWSAPSDPLDILITGQIHGTPFISVQPGPTVASGENVTLLCQSWRQFHTFLLTKAGAADAPLRLRSIHEYPKYQAEFPMSPVTSAHAGTYRCYGSLNSDPYLLSHPSEPLELVVSGPSMGSSPPPTGPISTPAGPEDQPLTPTGSDPQSGLGRHLGVVIGILVAVVLLLLLLLLLFLILRHRRQGKHWTSTQRKADFQHPAGAVGPEPTDRGLQWRSSPAADAQEENLYAAVKDTQPEDGVEMDTRAAASEAPQDVTYAQLHSLTLRRKATEPPPSQEREPPAEPSIYATLAIH
notes: also called ILT4; LIR2
binding result [1]: binds

B2: PirB (paired-immunoglobulin-like receptor B), full-length, expressed on transfected COS7 cells (receptor)
chain: SLPKPILRVQPDSVVSRWTKVTFFCEETIGANEYRLYKDGKLYKTVTKNKQKPANKAEFSLSNVDLRNAGQYRCSYSTQYKSSGYSDPLELVVTGDYWTPSLLAQASPVVTSGGYVTLQCESWHNDHKFILTVEGPQKLSWTQDSQYNYSTRKYHALFSVGPVTPNQRWICRCYSYDRNRPYVWSPPSESVELLVSGNLQKPTIKAEPGPVIASKRAMTIWCQGNLDAEVYFLHNEGSQKTQSTQTLQQPGNKGKFFIPSMTRQHAGQYRCYCYGSAGWSQPSDTLELVVTGIYEHYKPRLSVLPSPVVTAGGNMTLHCASDFHYDKFILTKEDKKFGNSLDTEHISSSRQYRALFIIGPTTPTHTGTFRCYGYFKNAPQLWSVPSDLQQILISGLSKKPSLLTHQGHILDPGMTLTLQCYSDINYDRFALHKVGGADIMQHSSQQTDTGFSVANFTLGYVSSSTGGQYRCYGAHNLSSEWSASSEPLDILITGQLPLTPSLSVKPNHTVHSGETVSLLCWSMDSVDTFILSKEGSAQQPLRLKSKSHDQQSQAEFSMSAVTSHLSGTYRCYGAQNSSFYLLSSASAPVELTVSGPIETSTPPPTMSMPLGGLHMYLKALIGVSVAFILFLFILIFILLRRRHRGKFRKDVQKEKDLQLSSGAEEPITRKGELQKRPNPAAATQEESLYASVEDMQTEDGVELNSWTPPEEDPQGETYAQVKPSRLRKAGHVSPSVMSREQLNTEYEQAEEGQGANNQAAESGESQDVTYAQLCSRTLRQGAAASPLSQAGEAPEEPSVYATLAAARPEAVPKDVEQ
notes: COS7 cells were transfected with cDNA encoding full-length PirB; In the antibody outgrowth assays the target is the PirB of mouse neurons
binding result [2]: binds
